Experimental data taken from the DeepSol protein solubility set.

Assay: soluble on expression in E. coli; label from the status in PepcDB or PDB records

Q: With “IVVYTDREVYGAVGSQVTLHCSFWSSEWVSDDISFTWRYQPEGGRDAISIFHYAKGQPYIDEVGTFKERIQWVGDPSWKDGSIVIHNLDYSDNGTFTCDVKNPPDIVGKTSQVTLYVFEKVPTR” as the sequence, how does the “soluble on expression in E. coli” value read?
A: Its value is “soluble”.

Q: Which “soluble on expression in E. coli” value does the source give for “MRREIRRICGFDVSDRWINLFRKKHGIRYFSGRRHADKKDKTIILSALDVTKMKTTNFLKKRRILRTSRKEYADVDLQVNKEIVRRQNKGERLTNPWIKEYAQYVAYQLHPEIPDIAKFFDANWLYRFKRRYCVELKVALNDFLYDLNSIFQPRSPEENTRSTPQTTSNEDIKSSATSMEVVTSPNYLFPHHYFNLFDQNGCGASIVKQEPTREN” here?
A: The value was “not soluble”.

Q: Which “soluble on expression in E. coli” value does the source give for “MGSDKIHHHHHHVDTGNRPSILRMPAQEDFVRFKPGFGTRFLLTVDTEEEFDWSKPLDRTSHGLHHVPRLAKFQQFCEGVGVVPVYLVDFPVASDPRAADILRDAVHAGKAEIGVQLHPWVSPPHDEDVNVHNSFAGNLAPELERAKFRKLRDTIEQAFGVGPLIYRAGRYGVGPATASILSDCAIAIDTSVRSRFDYSSAGGPNFREYPLRPWWIDKRNGLMEMPLTTVFSGLLRQQGQTIYPALWRVPRLRGALARIGMLERIPLTPEGVTLDEAIKGIDMALDDGLEMLVFSFHSPSLCPGHTPYVRDESDLDLFYAWWRGVLTYMQQRNVKPTCVREIMEAAEI” here?
A: The value was “not soluble”.

Q: For “MSLSSAQQWSYVRQLQREIRRSDVLDLPLEKLPVVVFDLETSGFYPDQGDRILSIGAVKVVGLTIQEEETFYSVVHTDTVPPENILELTGLSVEELEAAPPLTSVLESFYAFIRHSTLVAHHASHEKAFMSHVTWQTMKLPFEHRVIDTSFLTKIVAPQELVTLDDCCAYYSIPVQNRHHAFEDSLMTAKLWIAAIAAAREAGEGHHHHHH”, which “soluble on expression in E. coli” value is on record?
A: Its value is “not soluble”.

Q: With “MKEANLLIDLRGEPGINCNGFCKFCYFRKVNKNNPQPFGCRYCQFTVGCDYCMYSVREINGDFIPLPFALMELQSSLLFKRYSKVNLTAGGDVSCYPQLEELCKAINNIGLKIHLGYTSGKGFDNVEIAKNLVDYGVDEVTFSVFSTNPKLRKEWMNDKNAETALKCLRYFCENCEVHCAIIVIPGVNDGEELKKTVSDLVDWGANAVILMRFANSEEQGLILGNAPLIEGIKPHSVEEFKNIVDEIHNEFGDYIRVTGTPLHDPVAGTPFALAKEENSHILERLKDKINGEATIITGNVAYPFLKKIFDETSVNVVKVNKDIADLITAKDLEKLDLKDVKETVFIPPKAFVHDRVAEEILRRDGVDRIVVRGVEQLTLDGEVSGIYTREEALKFEIEAFEELIGMINFFGMKKQ” as the sequence, how does the “soluble on expression in E. coli” value read?
A: The value was “not soluble”.

Q: Which “soluble on expression in E. coli” value does the source give for “MEWILFDKDGTLIEFDRSWEKIGVRFVQSLLETFPVHNKEAALRQLGVIKESIDPKSVMGSGSLQQIIQAFNDVTGQDTTDWSKSTSQKLVDERIPEINWVEGVKEALIDLKAKGYQLGIVTSDTKKGVEQFLAHTNAISLFDLIISTEADAYEKPNPKVLSPLFEQYNVDPQKVAIVGDTANDMKTASNANLGMAIGVLTGIATKEELHEADIILNSAADILEALN” here?
A: Its value is “not soluble”.

Q: With “MKRESVLFQAARKHHLNLLFPLFRANTSASYPVSRFISRPITVLSKGFAKGFFCIKKETVDKIQQFFFDKWAIEERRYHQLLSILLPGLKNGNLASVEQYLGAKRIEAYAAVPYVAGRWELDDASLPQGAVVVLTCEGVLYSWETYRLERYISAAMANDRISGVVLFVNGPGGMITRVDVLEKLIRQSPKPIVAYITGVCASAHFWFVSACARRFVSSPMDEIGSCGVVYTFQSFKEYYAQMGIEIEDIYPDSADLKNRAYRDKEEKQDDTLIKENLSFYHHLFAQTIARNLGVKYDAQDPLFRGQTFFADTALAKGYVDAYGSLEDAILWVSAQKTVKRANKMILEHHHHHH” as the sequence, how does the “soluble on expression in E. coli” value read?
A: Its value is “not soluble”.

Q: For “MSLTRICIVGAGAVGGYLGARLALAGEAVNVLARGATLQALQTAGLRLTEDGATHTLPVRATHDAVALGEQDVVIVAVKAPALESVAAAIAPLIGPGTCVVVAMNGVPWWFFDRPGPLQGQRLQAVDPHGRIAQAIPTRHVLGCVVHLTSATASPGHIRHGNGRRLILGEPAGGASPRLASIAALFGRAGLQAECSEAIQRDIWFKLWGNMTMNPVSVLTGATCDRILDDPLVSAFCLAVMAEAKAIGARIGCPIEQSGEARSAVTRQLGAFKTSMLQDAEAGRGPLEIDALVASVREIGRHVGVPTPQIDTLLGLVRLHAQTRGLYEGHHHHHH”, which “soluble on expression in E. coli” value is on record?
A: The value was “soluble”.
